Starred links: 1 amine or outer side, 2 acyl side, 3 side chain; linkers in the order of their positions; H or OH if unused. Positions of bridges follow the written chain, without caps; N, C: chain ends. Non-standard residues stand in square brackets, D forms with d. Groups on a side chain read outwards from the residue. Primed or numbered codes have the meaning given here. *: point of attachment. MeKCOpipzaa″ = (2S)-6-{[4-(carboxymethyl)piperazine-1-carbonyl]amino}-2-(methylamino)hexanoic acid, CN([C@@H](CCCCNC(=O)N1CCN(CC(=O)[*:3])CC1)C(=O)[*:2])[*:1]; TMe(3) = O-methyl-L-threonine ((2S,3R)-2-amino-3-methoxybutanoic acid), CO[C@H](C)[C@H](N[*:1])C(=O)[*:2]; F4aao = 4-(carboxymethoxy)-L-phenylalanine, O=C([C@H](Cc1ccc(OCC(=O)[*:3])cc1)N[*:1])[*:2]; MeHseMe = N-methyl-O-methyl-L-homoserine, COCC[C@@H](C(=O)[*:2])N(C)[*:1]; Hgn = 2,6-diamino-6-oxohexanoic acid, NC(=O)CCC[C@H](N[*:1])C(=O)[*:2]; Phe(4-(1-Me-pyrazol-4-yl)) = Cn1cc(-c2ccc(C[C@H](N)C(=O)O)cc2)cn1; TMe = O-methyl-L-threonine, CO[C@H](C)[C@H](N[*:1])C(=O)[*:2]; NMeAla(isoquinolin-7-yl) = CN[C@@H](Cc1ccc2ccncc2c1)C(=O)O; SulfoCy5(3) = sulfo-Cyanine5 hexanoyl dye on the lysine NZ; PEG12 = NCCOCCOCCOCCOCCOCCOCCOCCOCCOCCOCCOCCOCCC(=O)O; Phe(4-CH2COOH) = N[C@@H](Cc1ccc(CC(=O)O)cc1)C(=O)O; 3Pal(6-Ph) = N[C@@H](Cc1ccc(-c2ccccc2)nc1)C(=O)O; Biotin = O=C1N[C@H]2[C@H](CS[C@H]2CCCCC(=O)*)N1; Phe(4-COOH) = N[C@@H](Cc1ccc(C(=O)O)cc1)C(=O)O; NMe2Nal = CN[C@@H](Cc1ccc2ccccc2c1)C(=O)O; AEF = NCCOc1ccc(C[C@H](N)C(=O)O)cc1; NMeY = CN[C@@H](Cc1ccc(O)cc1)C(=O)O; NMeI = CC[C@H](C)[C@H](NC)C(=O)O; NMeQ = CN[C@@H](CCC(N)=O)C(=O)O; NMeK = CN[C@@H](CCCCN)C(=O)O; NMeC = CN[C@@H](CS)C(=O)O; NMeA = CN[C@@H](C)C(=O)O; MeK = methyl-L-lysine
B1: Macrocyclic peptide of Example 2-53 (SEQ ID No. 28) (peptide)
peptide: {CH2CO}-[NMeQ][NMeQ]D[NMeQ][Phe(4-COOH)]II[AEF][NMe2Nal]G[Phe(4-(1-Me-pyrazol-4-yl))][NMeC]-NH2
modifications: thioether N-12
SMILES: CC[C@H](C)[C@@H]1NC(=O)[C@H](Cc2ccc(C(=O)O)cc2)NC(=O)[C@H](CCC(N)=O)N(C)C(=O)[C@H](CC(=O)O)NC(=O)[C@H](CCC(N)=O)N(C)C(=O)[C@H](CCC(N)=O)N(C)C(=O)CSC[C@@H](C(N)=O)N(C)C(=O)[C@H](Cc2ccc(-c3cnn(C)c3)cc2)NC(=O)CNC(=O)[C@H](Cc2ccc3ccccc3c2)N(C)C(=O)[C@H](Cc2ccc(OCCN)cc2)NC(=O)[C@H]([C@@H](C)CC)NC1=O
B2: Macrocyclic peptide of Example 2-55 (SEQ ID No. 56) (peptide)
peptide: {CH2CO}-[MeKCOpipzaa″][NMeA]D[NMeY][Phe(4-COOH)][TMe]I[AEF][NMeY]G[3Pal(6-Ph)][NMeC]-NH2
modifications: thioether N-12
SMILES: CC[C@H](C)[C@@H]1NC(=O)[C@H]([C@@H](C)OC)NC(=O)[C@H](Cc2ccc(C(=O)O)cc2)NC(=O)[C@H](Cc2ccc(O)cc2)N(C)C(=O)[C@H](CC(=O)O)NC(=O)[C@H](C)N(C)C(=O)[C@H](CCCCNC(=O)N2CCN(CC(=O)O)CC2)N(C)C(=O)CSC[C@@H](C(N)=O)N(C)C(=O)[C@H](Cc2ccc(-c3ccccc3)nc2)NC(=O)CNC(=O)[C@H](Cc2ccc(O)cc2)N(C)C(=O)[C@H](Cc2ccc(OCCN)cc2)NC1=O
B3: Macrocyclic peptide of Example 2-56 (SEQ ID No. 27) (peptide)
peptide: {CH2CO}-[NMeQ][NMeQ]D[NMeQ][AEF]II[Phe(4-CH2COOH)][NMe2Nal]G[Phe(4-(1-Me-pyrazol-4-yl))][NMeC]-NH2
modifications: thioether N-12
SMILES: CC[C@H](C)[C@@H]1NC(=O)[C@H](Cc2ccc(OCCN)cc2)NC(=O)[C@H](CCC(N)=O)N(C)C(=O)[C@H](CC(=O)O)NC(=O)[C@H](CCC(N)=O)N(C)C(=O)[C@H](CCC(N)=O)N(C)C(=O)CSC[C@@H](C(N)=O)N(C)C(=O)[C@H](Cc2ccc(-c3cnn(C)c3)cc2)NC(=O)CNC(=O)[C@H](Cc2ccc3ccccc3c2)N(C)C(=O)[C@H](Cc2ccc(CC(=O)O)cc2)NC(=O)[C@H]([C@@H](C)CC)NC1=O
B4: PLB-28 (peptide)
peptide: {CH2CO}-[NMeQ][NMeQ]D[NMeQ][Phe(4-COOH)]II[AEF]([PEG12-Biotin])[NMe2Nal]G[Phe(4-(1-Me-pyrazol-4-yl))][NMeC]-NH2
modifications: thioether N-12
SMILES: CC[C@H](C)[C@@H]1NC(=O)[C@H](Cc2ccc(C(=O)O)cc2)NC(=O)[C@H](CCC(N)=O)N(C)C(=O)[C@H](CC(=O)O)NC(=O)[C@H](CCC(N)=O)N(C)C(=O)[C@H](CCC(N)=O)N(C)C(=O)CSC[C@@H](C(N)=O)N(C)C(=O)[C@H](Cc2ccc(-c3cnn(C)c3)cc2)NC(=O)CNC(=O)[C@H](Cc2ccc3ccccc3c2)N(C)C(=O)[C@H](Cc2ccc(OCCNC(=O)CCOCCOCCOCCOCCOCCOCCOCCOCCOCCOCCOCCOCCNC(=O)CCCC[C@@H]3SC[C@@H]4NC(=O)N[C@@H]43)cc2)NC(=O)[C@H]([C@@H](C)CC)NC1=O
B5: PLB-30 (peptide)
peptide: {CH2CO}-[NMeK]([PEG12-Biotin])[NMeI]D[NMeQ][Phe(4-COOH)][TMe]I[F4aao][NMeAla(isoquinolin-7-yl)]G[3Pal(6-Ph)][NMeC]-NH2
modifications: thioether N-12
SMILES: CC[C@H](C)[C@@H]1NC(=O)[C@H]([C@@H](C)OC)NC(=O)[C@H](Cc2ccc(C(=O)O)cc2)NC(=O)[C@H](CCC(N)=O)N(C)C(=O)[C@H](CC(=O)O)NC(=O)[C@H]([C@@H](C)CC)N(C)C(=O)[C@H](CCCCNC(=O)CCOCCOCCOCCOCCOCCOCCOCCOCCOCCOCCOCCOCCNC(=O)CCCC[C@@H]2SC[C@@H]3NC(=O)N[C@@H]32)N(C)C(=O)CSC[C@@H](C(N)=O)N(C)C(=O)[C@H](Cc2ccc(-c3ccccc3)nc2)NC(=O)CNC(=O)[C@H](Cc2ccc3ccncc3c2)N(C)C(=O)[C@H](Cc2ccc(OCC(=O)O)cc2)NC1=O
B6: PLB-60 (peptide)
peptide: KIDQFIIYFGXCG
modifications: not fully specified; MeKAc-MeI-D-MeQ-F4COO-I-I-Y-MeNal27N-G-3Py6Ph-MeC-G-PEG12c-K(biotin)-NH2 by Table 13 (Table 1 prints PEG10c and K at positions 14 and 15 of SEQ ID No. 60); thioether ring from N-terminal acetyl to MeC12
notes: Biotin on the C-terminal tail outside the ring
B7: PLD-45 (peptide)
peptide: {CH2CO}-K[MeHseMe]D[NMeQ][Phe(4-COOH)][TMe]IY[NMeAla(isoquinolin-7-yl)]G[3Pal(6-Ph)][NMeC]-NH2
modifications: thioether N-12; not fully specified (residue 1); printed as MeK-MeHseMe-D-MeQ-F4COO-TMe-I-Y-MeNal27N-G-3Py6Ph-MeC-NH2
notes: SulfoCy5 conjugate

molecular target: T1, Human Glypican3-Fc (ACRO Biosystems, GP3-H5258) (human, UniProt P51654 25-559); test: SPR (Biacore T200), Method B-3: Glypican3-Fc captured on Protein A chip, peptide as analyte
T1 construct: Bought fusion protein, captured in Methods B-2, B-3 and B-4; Catalogue number is printed only in Method B-2; not shown: Fc part of the bought fusion
Experimental: A Protein A sensor chip (Cytiva) was inserted into a Biacore T200 (Cytiva), priming was performed three times with a running buffer: HBS-P+, pH 7.4 (Cytiva), and equilibration was carried out at a flow rate of 30 μL/min. Glypican3-Fc was allowed to react for 60 seconds at a flow rate of 10 μL/min. After capturing human Glypican3-Fe, a peptide solution prepared to 10 mM in DMSO solution was diluted with a running buffer to a final concentration of 10 μM. […] Using the above samples, peptide kinetics for Glypican3 was obtained by SPR measurement. Kinetics evaluation of Glypican3 was performed by SPR measurements at a flow rate of 10 LL/min, setting the association time to 120 seconds and the disassociation time to 600 seconds.
The obtained data by Method B-1, Method B-2, Method B-3 and Method B-4 were analyzed by follow. Single Cycle Kinetics was used as the kinetics evaluation model, and curve fitting was performed using Biacore T200 Evaluation Software Version 3.0 (Cytiva).

| Binder | Kd |
| --- | --- |
| B1 | 1 nM |
| {CH2CO}-[MeK][NMeQ][Hgn][NMeQ][Phe(4-COOH)][TMe(3)]IY[NMe2Nal]G[Phe(4-(1-Me-pyrazol-4-yl))][NMeC]-NH2 (thioether N-12) [Macrocyclic peptide of Example 2-54 (SEQ ID No. 29)] | 0.1 nM |
| B2 | 5.3 nM |
| B3 | 7.9 nM |
| B4 | 1.53 nM |
| B5 | 0.75 nM |
| B6 | 0.11 nM |
| B7 | 0.88 nM |
| {CH2CO}-[NMeK](SulfoCy5(3))[MeHseMe]D[NMeQ][Phe(4-COOH)][TMe]I[F4aao][NMeAla(isoquinolin-7-yl)]G[3Pal(6-Ph)][NMeC]-NH2 (thioether N-12) [Mod7] | 4.2 nM |

Source: patent US20260241049A1, “Radiopharmaceutical Compositions Targeting Glypican-3 and Uses Thereof” (RayzeBio, Inc., priority 2023, published 2026)
